Test results reported in patent US20200270325A1 (Merck Sharp & Dohme, published 2020).
Numbered stars: 1 amine (or outer) side, 2 acyl side, 3 side chain; on linkers, the order of the positions; unused ones are H or OH. Square brackets hold non-standard residues; d marks the D form. Primed or numbered codes have the meaning given here. Side chains are listed from the residue outwards. Ends that are not written are not given here. * marks the point of attachment. Phe(4-CH2NH2) = NCc1ccc(C[C@H](N)C(=O)O)cc1; C18 diacid = O=C(O)CCCCCCCCCCCCCCCCC(=O)*; γGlu = O=C(O)[C@H](CCC(=O)[*:2])N[*:1]; Met(O2) = CS(=O)(=O)CC[C@H](N)C(=O)O; αMeD = C[C@](N)(CC(=O)O)C(=O)O; PEG2′ = not defined here; AEEA = NCCOCCOCC(=O)O; Aib = CC(C)(N)C(=O)O

B1: TP693 (peptide)
peptide: HXQGTFTSDXSKYLDARAAQDFVXWLXDT
modifications: D-Ser (s) at 2; pAF(γEγEC16) at 10; K(PEG2PEG2γEC16-OH) at 24; L-methionine sulphone (2) at 27; C-terminal amide
B2: TP679 (peptide)
peptide: H[Aib]QGTFTSDYSKYLDARAAQ[Phe(4-CH2NH2)]([AEEA-AEEA-AEEA-γGlu-C18 diacid])FVQWLLDT-NH2
modifications: N-terminus assumed
SMILES: CC(C)C[C@H](NC(=O)[C@H](Cc1ccc(O)cc1)NC(=O)[C@H](CCCCN)NC(=O)[C@H](CO)NC(=O)[C@H](Cc1ccc(O)cc1)NC(=O)[C@H](CC(=O)O)NC(=O)[C@H](CO)NC(=O)[C@@H](NC(=O)[C@H](Cc1ccccc1)NC(=O)[C@@H](NC(=O)CNC(=O)[C@H](CCC(N)=O)NC(=O)C(C)(C)NC(=O)[C@@H](N)Cc1c[nH]cn1)[C@@H](C)O)[C@@H](C)O)C(=O)N[C@@H](CC(=O)O)C(=O)N[C@@H](C)C(=O)N[C@@H](CCCNC(=N)N)C(=O)N[C@@H](C)C(=O)N[C@@H](C)C(=O)N[C@@H](CCC(N)=O)C(=O)N[C@@H](Cc1ccc(CNC(=O)COCCOCCNC(=O)COCCOCCNC(=O)COCCOCCNC(=O)CC[C@H](NC(=O)CCCCCCCCCCCCCCCCC(=O)O)C(=O)O)cc1)C(=O)N[C@@H](Cc1ccccc1)C(=O)N[C@H](C(=O)N[C@@H](CCC(N)=O)C(=O)N[C@@H](Cc1c[nH]c2ccccc12)C(=O)N[C@@H](CC(C)C)C(=O)N[C@@H](CC(C)C)C(=O)N[C@@H](CC(=O)O)C(=O)N[C@H](C(N)=O)[C@@H](C)O)C(C)C
B3: TP681 (peptide)
peptide: H[Aib]QGTFTSDYSKYLDARAAQK([AEEA-AEEA-γGlu-C18 diacid])FVQWL[Met(O2)][αMeD]T-NH2
modifications: N-terminus assumed
SMILES: CC(C)C[C@H](NC(=O)[C@H](Cc1ccc(O)cc1)NC(=O)[C@H](CCCCN)NC(=O)[C@H](CO)NC(=O)[C@H](Cc1ccc(O)cc1)NC(=O)[C@H](CC(=O)O)NC(=O)[C@H](CO)NC(=O)[C@@H](NC(=O)[C@H](Cc1ccccc1)NC(=O)[C@@H](NC(=O)CNC(=O)[C@H](CCC(N)=O)NC(=O)C(C)(C)NC(=O)[C@@H](N)Cc1c[nH]cn1)[C@@H](C)O)[C@@H](C)O)C(=O)N[C@@H](CC(=O)O)C(=O)N[C@@H](C)C(=O)N[C@@H](CCCNC(=N)N)C(=O)N[C@@H](C)C(=O)N[C@@H](C)C(=O)N[C@@H](CCC(N)=O)C(=O)N[C@@H](CCCCNC(=O)COCCOCCNC(=O)COCCOCCNC(=O)CC[C@H](NC(=O)CCCCCCCCCCCCCCCCC(=O)O)C(=O)O)C(=O)N[C@@H](Cc1ccccc1)C(=O)N[C@H](C(=O)N[C@@H](CCC(N)=O)C(=O)N[C@@H](Cc1c[nH]c2ccccc12)C(=O)N[C@@H](CC(C)C)C(=O)N[C@@H](CCS(C)(=O)=O)C(=O)N[C@@](C)(CC(=O)O)C(=O)N[C@H](C(N)=O)[C@@H](C)O)C(C)C
B4: TP699 (peptide)
peptide: H[Aib]QGTFTSEYSKKLDARAAQDFVK([AEEA-AEEA-γGlu-C18 diacid])WL[Met(O2)]DT-NH2
modifications: N-terminus assumed
SMILES: CC(C)C[C@H](NC(=O)[C@H](CCCCN)NC(=O)[C@H](CCCCN)NC(=O)[C@H](CO)NC(=O)[C@H](Cc1ccc(O)cc1)NC(=O)[C@H](CCC(=O)O)NC(=O)[C@H](CO)NC(=O)[C@@H](NC(=O)[C@H](Cc1ccccc1)NC(=O)[C@@H](NC(=O)CNC(=O)[C@H](CCC(N)=O)NC(=O)C(C)(C)NC(=O)[C@@H](N)Cc1c[nH]cn1)[C@@H](C)O)[C@@H](C)O)C(=O)N[C@@H](CC(=O)O)C(=O)N[C@@H](C)C(=O)N[C@@H](CCCNC(=N)N)C(=O)N[C@@H](C)C(=O)N[C@@H](C)C(=O)N[C@@H](CCC(N)=O)C(=O)N[C@@H](CC(=O)O)C(=O)N[C@@H](Cc1ccccc1)C(=O)N[C@H](C(=O)N[C@@H](CCCCNC(=O)COCCOCCNC(=O)COCCOCCNC(=O)CC[C@H](NC(=O)CCCCCCCCCCCCCCCCC(=O)O)C(=O)O)C(=O)N[C@@H](Cc1c[nH]c2ccccc12)C(=O)N[C@@H](CC(C)C)C(=O)N[C@@H](CCS(C)(=O)=O)C(=O)N[C@@H](CC(=O)O)C(=O)N[C@H](C(N)=O)[C@@H](C)O)C(C)C
B5: TP678 (peptide)
peptide: H[Aib]QGTFTSDYSKYLDARAA[Phe(4-CH2NH2)]([AEEA-AEEA-AEEA-γGlu-C18 diacid])DFVQWLLDT-NH2
modifications: N-terminus assumed
SMILES: CC(C)C[C@H](NC(=O)[C@H](Cc1ccc(O)cc1)NC(=O)[C@H](CCCCN)NC(=O)[C@H](CO)NC(=O)[C@H](Cc1ccc(O)cc1)NC(=O)[C@H](CC(=O)O)NC(=O)[C@H](CO)NC(=O)[C@@H](NC(=O)[C@H](Cc1ccccc1)NC(=O)[C@@H](NC(=O)CNC(=O)[C@H](CCC(N)=O)NC(=O)C(C)(C)NC(=O)[C@@H](N)Cc1c[nH]cn1)[C@@H](C)O)[C@@H](C)O)C(=O)N[C@@H](CC(=O)O)C(=O)N[C@@H](C)C(=O)N[C@@H](CCCNC(=N)N)C(=O)N[C@@H](C)C(=O)N[C@@H](C)C(=O)N[C@@H](Cc1ccc(CNC(=O)COCCOCCNC(=O)COCCOCCNC(=O)COCCOCCNC(=O)CC[C@H](NC(=O)CCCCCCCCCCCCCCCCC(=O)O)C(=O)O)cc1)C(=O)N[C@@H](CC(=O)O)C(=O)N[C@@H](Cc1ccccc1)C(=O)N[C@H](C(=O)N[C@@H](CCC(N)=O)C(=O)N[C@@H](Cc1c[nH]c2ccccc12)C(=O)N[C@@H](CC(C)C)C(=O)N[C@@H](CC(C)C)C(=O)N[C@@H](CC(=O)O)C(=O)N[C@H](C(N)=O)[C@@H](C)O)C(C)C

The binders below were run against human Glucagon receptor (GCGR) (human, UniProt P47871 26-477) (assay: cell-based or functional assay).
Sequence of human Glucagon receptor (GCGR) (P47871 26-477): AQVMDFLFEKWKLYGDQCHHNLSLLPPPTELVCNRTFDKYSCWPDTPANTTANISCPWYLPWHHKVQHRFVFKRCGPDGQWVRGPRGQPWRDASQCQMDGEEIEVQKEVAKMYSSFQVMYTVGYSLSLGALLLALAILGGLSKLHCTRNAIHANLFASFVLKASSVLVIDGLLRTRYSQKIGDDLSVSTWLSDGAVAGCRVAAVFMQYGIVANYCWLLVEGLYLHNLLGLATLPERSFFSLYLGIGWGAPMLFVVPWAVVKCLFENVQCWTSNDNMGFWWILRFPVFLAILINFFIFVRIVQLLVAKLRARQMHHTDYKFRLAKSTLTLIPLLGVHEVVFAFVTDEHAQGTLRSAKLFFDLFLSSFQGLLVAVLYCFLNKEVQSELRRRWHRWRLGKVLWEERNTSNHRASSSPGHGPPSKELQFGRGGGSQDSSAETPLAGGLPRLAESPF

Binder	GCGR EC50 human [nM]
B1	1.1
H[Aib]QGTFTSDYSKYLD[Aib]RAAQDFVQWLLK([AEEA-AEEA-γGlu-C18 diacid])TK-{γGlu-NH2} [TP683]	4.97
B2	0.13
H[Aib]QGTFTSDYSKYLDARAAQDFVK([PEG2′-PEG2′-PEG2′-γGlu-C18‑OH])WL[Met(O2)]DT-NH2 [TP680]	0.59
H[Aib]QGTFTSDYSKYLD[Aib]RAAQDFVQWLL[Phe(4-CH2NH2)]([AEEA-AEEA-γGlu-C18 diacid])TK-{γGlu-NH2} [TP682]	2.35
B3	0.27
B4	> 19.8
B5	0.25

The binders below were run against human GLP-1 receptor (GLP1R) (human, UniProt P43220 24-463) (assay: cell-based or functional assay).

Binder	GLP1R EC50 human [nM]
B1	> 4.9
H[Aib]QGTFTSDYSKYLD[Aib]RAAQDFVQWLLK([AEEA-AEEA-γGlu-C18 diacid])TK-{γGlu-NH2} [TP683]	0.62
B2	0.18
H[Aib]QGTFTSDYSKYLDARAAQDFVK([PEG2′-PEG2′-PEG2′-γGlu-C18‑OH])WL[Met(O2)]DT-NH2 [TP680]	0.19
H[Aib]QGTFTSDYSKYLD[Aib]RAAQDFVQWLL[Phe(4-CH2NH2)]([AEEA-AEEA-γGlu-C18 diacid])TK-{γGlu-NH2} [TP682]	2.31
B3	0.15
B4	> 19.8
B5	0.91
